Results: the supplement of paper PMC10899765
Where “and” joins values, the source holds several entries; their conditions need not be identical. Equal values may be shown once.

Columns and labels:
Conditions in all cases: 20 nM; 72 h
MCF10A [1] = test: percent viability (nuclei count relative to siNT); higher = more viable cells
Protocol: (§1)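 After 72 h, cells were fixed and stained with Hoechst and anti-fibrillarin, and nucleoli per nucleus were counted with CellProfiler. Values are plate-adjusted percent effect for the one-nucleolus and 5+ nucleoli phenotypes, normalised to siNT (0%) and to the positive controls siNOL11 or siKIF11 (100%), as the mean of biological triplicates. Percent viability is the nuclei count relative to siNT.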

MCF10A [2] = test: one-nucleolus phenotype percent effect (relative to siNT 0% and siNOL11 100%); higher = more cells with one nucleolus (ribosome biogenesis inhibition)
Protocol: as §1

MCF10A [3] = test: 5+ nucleoli phenotype percent effect (relative to siNT 0% and siKIF11 100%); higher = more cells with five or more nucleoli
Protocol: as §1

Sequence | percent viability (MCF10A [1]) | one-nucleolus phenotype percent effect (MCF10A [2]) | 5+ nucleoli phenotype percent effect (MCF10A [3])
UACAGUAUAGAUGAUGUACU [hsa-miR-144-3p] | 119% | -2.3% | -8.45%
UACAUGGAUGGAAACCUUCAAGC [hsa-miR-4802-3p] | 70.6% | -8.74% | -3.05%
UACCACAGGGUAGAACCACGG [hsa-miR-140-3p] | 118% | -23.5% | 47.1%
UACCAUUAGAAGAGCUGGAAGA [hsa-miR-6512-5p] | 78.6% | 1.01% | 11%
UACCCAGAGCAUGCAGUGUGAA [hsa-miR-1912] | 29.7% | 39.9% | -35.1%
UACCCAGUCUCCGGUGCAGCC [hsa-miR-3130-5p] | 27.4% | 44% | -32.6%
UACCCAUUGCAUAUCGGAGUUG [hsa-miR-660-5p] | 30% | 44.9% | -38.8%
UACCCUGUAGAACCGAAUUUGUG [hsa-miR-10b-5p] | 30.6% | 25.8% | -26.1%
UACCCUGUAGAUCCGAAUUUGUG [hsa-miR-10a-5p] | 39.9% | 19.4% | -19.7%
UACCUGGGAGACUGAGGUUGGA [hsa-miR-7851-3p] | 61.5% | -15.4% | 24.6%
UACGCGCAGACCACAGGAUGUC [hsa-miR-3939] | 38.1% | -5.45% | 11.7%
UACGGUGAGCCUGUCAUUAUUC [hsa-miR-433-5p] | 32.9% | 4.21% | -4.1%
UACGUAGAUAUAUAUGUAUUUU [hsa-miR-1277-3p] | 135% | -20.9% | 41.8%
UACGUCAUCGUUGUCAUCGUCA [hsa-miR-598] | 151% | -26.8% | 47.8%
UACUAACUGCAGAUUCAAGUGA [hsa-miR-4637] | 140% | -24.1% | 24.1%
UACUCAAAAAGCUGUCAGUCA [hsa-miR-888-5p] | 82.3% | -13.4% | 11.8%
UACUCAGGAGAGUGGCAAUCAC [hsa-miR-510] | 20.5% | 41.9% | -26.8%
UACUCCAGAGGGCGUCACUCAUG [hsa-miR-508-5p] | 60.6% | 19.6% | 0.947%
UACUCUGGAGAGUGACAAUCAUG [hsa-miR-514a-5p] | 56.4% and 66.9% | -13.3% and -15.4% | 29.4% and 19%
UACUGCAGACAGUGGCAAUCA [hsa-miR-509-5p] | 48.8% | 7.14% | 5.43%

Sequence | percent viability (MCF10A [1]) | one-nucleolus phenotype percent effect (MCF10A [2]) | 5+ nucleoli phenotype percent effect (MCF10A [3])
UACUGCAGACGUGGCAAUCAUG [hsa-miR-509-3-5p] | 26.5% | 26.3% | -30.4%
UACUGCAUCAGGAACUGAUUGGA [hsa-miR-217] | 62.9% | 0.807% | 1.56%
UACUUGGAAAGGCAUCAGUUG [hsa-miR-890] | 21% | 49.1% | -34.1%
UACUUUUCUAGGUUGUUGGGG [hsa-miR-5003-3p] | 24.9% | 55.6% | -39.5%
UAGACCAUCUUUCUAGAGUAU [hsa-miR-6502-3p] | 102% | -0.125% | -0.273%
UAGACGUGGUGAAGGAUUGAGUG [hsa-miR-6863] | 47.3% | 1.02% | -16.5%
UAGAGAGGGGAAGGAUGUGAUGU [hsa-miR-6758-5p] | 44.4% | 12.9% | -13.9%
UAGAGGAAGCUGUGGAGAGA [hsa-miR-3125] | 23.3% | 13.8% | -14.5%
UAGAGUCUGGCUGAUAUGGUUU [hsa-miR-5007-5p] | 49.3% | 14% | -8%
UAGAUAAAAUAUUGGUACCUG [hsa-miR-577] | 113% | -23.7% | 29.6%
UAGAUCUUUGACUCUGGCAGUCUCCAGG [hsa-miR-7161-3p] | 87.7% | -23.9% | 28.4%
UAGCAAAAACUGCAGUUACUUU [hsa-miR-548p] | 114% | -21.8% | 17.2%
UAGCAAGAGAACCAUUACCAUU [hsa-miR-451b] | 71.6% | -10.8% | 3.42%
UAGCAAUACAGUACAAAUAUAGU [hsa-miR-4703-5p] | 131% | -22% | 32.3%
UAGCACCAUCUGAAAUCGGUUA [hsa-miR-29a-3p] | 65.1% | -24% | 46.9%
UAGCACCAUUUGAAAUCAGUGUU [hsa-miR-29b-3p] | 63.7% | -20.6% | 20.2%
UAGCACCAUUUGAAAUCGGUUA [hsa-miR-29c-3p] | 138% | -21% | 38%
UAGCAGCACAGAAAUAUUGGC [hsa-miR-195-5p] | 26.4% | 13.4% | -10.1%
UAGCAGCACAUAAUGGUUUGUG [hsa-miR-15a-5p] | 17.3% | 40.1% | -43.7%
UAGCAGCACAUCAUGGUUUACA [hsa-miR-15b-5p] | 26.5% | 26.9% | -4.86%

Sequence | percent viability (MCF10A [1]) | one-nucleolus phenotype percent effect (MCF10A [2]) | 5+ nucleoli phenotype percent effect (MCF10A [3])
UAGCAGCACGUAAAUAUUGGCG [hsa-miR-16-5p] | 15.8% | 27.2% | -19.3%
UAGCAGCGGGAACAGUUCUGCAG [hsa-miR-503-5p] | 29.1% | 14.4% | -16.1%
UAGCCCCCAGGCUUCACUUGGCG [hsa-miR-3943] | 19.1% | 8.41% | -18.2%
UAGCCUUCAGAUCUUGGUGUUUU [hsa-miR-3614-3p] | 51.5% | 28.6% | -23.5%
UAGCGGGGAUUCCAAUAUUGG [hsa-miR-4781-5p] | 24.3% | 46.5% | -29.7%
UAGCUUAUCAGACUGAUGUUGA [hsa-miR-21-5p] | 121% | -9.39% | 11.7%
UAGGACACAUGGUCUACUUCU [hsa-miR-1197] | 61.7% | 7.44% | -9.77%
UAGGACUAGAUGUUGGAAUUA [hsa-miR-4759] | 33.2% | -7.56% | 10.4%
UAGGACUGUGCUUGGCACAUAG [hsa-miR-3169] | 27.4% | 1.07% | 20%
UAGGAGGGAAUAGUAAAAGCAG [hsa-miR-4779] | 15% | 54.7% | -25.8%
UAGGAUGGGGGUGAGAGGUG [hsa-miR-2392] | 50.4% | -3.85% | 17.7%
UAGGAUUACAAGUGUCGGCCAC [hsa-miR-3159] | 44.9% | -5% | -4.52%
UAGGCACACUUAAAGUUAUAGC [hsa-miR-5582-5p] | 13.8% | 37.6% | -17.3%
UAGGCAGUGUAUUGCUAGCGGCUGU [hsa-miR-449c-5p] | 17.7% | 17.4% | -19.5%
UAGGCAGUGUCAUUAGCUGAUUG [hsa-miR-34b-5p] | 17.6% | 35.6% | -23.8%
UAGGCCACAGCCACCCAUGUGU [hsa-miR-4717-5p] | 23.3% | -8.66% | -6.97%
UAGGCCUUUAGAUCACUUAAA [hsa-miR-1245b-5p] | 21.5% | 19.2% | -5.02%
UAGGGAUGGGAGGCCAGGAUGA [hsa-miR-6757-5p] | 41.1% | 3.26% | 2.44%
UAGGGGAAAAGUCCUGAUCCGG [hsa-miR-6783-5p] | 78.4% | -20.2% | 18.2%
